Test results published in patent US20260042834A1 (HBM ALPHA THERAPEUTICS, published 2026).
Numbering of substitutions follows the chain as printed. Read-outs that look alike come from different tables or passages of the source.

T1: corticotropin-releasing hormone (CRH) peptide (human and mouse (same sequence), not fully specified)
T1 peptide: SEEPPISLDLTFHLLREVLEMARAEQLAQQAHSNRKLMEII

B1: PR302341-1 (antibody, human IgG1, kappa, V domains shown)
VH: EVQLQQSGPELVKPGASVKMSCKASGYTFTDYFMKWVKQSHGESLEWIGVINPNNGDIFYNQKFKGKATLTVDKSSSTAFMQLNSLTSEDSAVYSCARGTDRALFAYWGQGTLVAVSA
VL: DVVMTQSPLSLPVTLGQPASISCRSGQSIVHSDGNTYLEWFQQRPGQSPRRLIYKVSNRFSGVPDRFSGSGSGTDFTLKISRVEAEDVGVYYCFQGSHIPWTFGGGTKVEIKR
B2: PR302341-2 (antibody, human IgG1, kappa, V domains shown)
VH: B1 VH
VL: B1 VL with F41Y, R51L, V88L
B3: PR302341-3 (antibody, human IgG1, kappa, V domains shown)
VH: B1 VH
VL: B1 VL with V2I, S7T, L11S, F41L, S48P, R51L, S72A
B4: PR302341-4 (antibody, human IgG1, kappa, V domains shown)
VH: B1 VH
VL: B1 VL with S7T, L11S, F41Y, S48P, R51L, S72A, V88L
B5: PR302341-5 (antibody, human IgG1, kappa, V domains shown)
VH: B1 VH
VL: B1 VL with V2I, S7T, P12S, L15P, F41Y, Q42L, R44K, R50Q, R51L
B6: PR302341-6 (antibody, human IgG1, kappa, V domains shown)
VH: B1 VH
VL: B1 VL with S7T, P12S, L15P, F41Y, Q42L, R44K, R50Q, R51L, V88L
B7: PR302341-7 (antibody, human IgG1, kappa, V domains shown)
VH: QVQLVQSGAEVKKPGASVKVSCKASGYTFTDYFMKWVRQAPGQGLEWMGVINPNNGDIFYNQKFKGRVTMTVDKSTSTAYMELSSLRSEDTAVYYCARGTDRALFAYWGQGTLVTVSS
VL: B1 VL
B8: PR302341-8 (antibody, human IgG1, kappa, V domains shown)
VH: B7 VH
VL: B1 VL with F41Y, R51L, V88L
B9: PR302341-9 (antibody, human IgG1, kappa, V domains shown)
VH: B7 VH
VL: B1 VL with V2I, S7T, L11S, F41L, S48P, R51L, S72A
B10: PR302341-11 (antibody, human IgG1, kappa, V domains shown)
VH: B7 VH
VL: B1 VL with V2I, S7T, P12S, L15P, F41Y, Q42L, R44K, R50Q, R51L
B11: PR302341-12 (antibody, human IgG1, kappa, V domains shown)
VH: B7 VH
VL: B1 VL with S7T, P12S, L15P, F41Y, Q42L, R44K, R50Q, R51L, V88L
B12: PR302341-13 (antibody, human IgG1, kappa, V domains shown)
VH: B7 VH with V72R, K74T, A79V
VL: DVLMTQTPLSLPVSLGDQASISCRSGQSIVHSDGNTYLEWYLQRPGQSPRLLIYKVSNRFSGVPDRFSGSGSGTDFTLKISRVGAEDLGIYYCFQGSHIPWTFGGGTKLEVKR
B13: PR302341-14 (antibody, human IgG1, kappa, V domains shown)
VH: B7 VH
VL: B12 VL
B14: PR302341-15 (antibody, human IgG1, kappa, V domains shown)
VH: B7 VH with G44R, M70I, V72R, K74T, T76A
VL: B12 VL
B15: PR302341-16 (antibody, human IgG1, kappa, V domains shown)
VH: B7 VH with G44R, M70I, T76A
VL: B12 VL
B16: PR302341-59 (antibody, human IgG1, kappa, V domains shown)
VH: B7 VH with G44R, N55S, M70I, V72R, K74T, T76A
VL: B1 VL with G34A, F41Y, R51L, V88L
B17: PR302341-60 (antibody, human IgG1, kappa, V domains shown)
VH: B7 VH with G44R, N55Q, M70I, V72R, K74T, T76A
VL: B1 VL with G34A, F41Y, R51L, V88L
B18: PR302341-61 (antibody, human IgG1, kappa, V domains shown)
VH: B7 VH with G44R, G56A, M70I, V72R, K74T, T76A
VL: B1 VL with D33E, F41Y, R51L, V88L
B19: PR302341-62 (antibody, human IgG1, kappa, V domains shown)
VH: B7 VH with G44R, N55S, M70I, V72R, K74T, T76A
VL: B1 VL with D33E, F41Y, R51L, V88L
B20: PR302341-63 (antibody, human IgG1, kappa, V domains shown)
VH: B7 VH with G44R, N55Q, M70I, V72R, K74T, T76A
VL: B1 VL with D33E, F41Y, R51L, V88L
B21: PR302341-64 (antibody, human IgG1, kappa, V domains shown)
VH: B7 VH with G44R, G56A, M70I, V72R, K74T, T76A
VL: B1 VL with D33S, F41Y, R51L, V88L
B22: PR302341-65 (antibody, human IgG1, kappa, V domains shown)
VH: B7 VH with G44R, N55S, M70I, V72R, K74T, T76A
VL: B1 VL with D33S, F41Y, R51L, V88L
B23: PR302341-66 (antibody, human IgG1, kappa, V domains shown)
VH: B7 VH with G44R, N55Q, M70I, V72R, K74T, T76A
VL: B1 VL with D33S, F41Y, R51L, V88L
B24: PR302341-70 (antibody, human IgG1, kappa, V domains shown)
VH: B7 VH with G44R, M70I, V72R, K74T, T76A
VL: B1 VL with G34A, F41Y, R51L, V88L
B25: PR302341-71 (antibody, human IgG1, kappa, V domains shown)
VH: B7 VH with G44R, M70I, V72R, K74T, T76A
VL: B1 VL with D33E, F41Y, R51L, V88L
B26: PR302341-72 (antibody, human IgG1, kappa, V domains shown)
VH: B7 VH with G44R, M70I, V72R, K74T, T76A
VL: B1 VL with D33S, F41Y, R51L, V88L
B27: PR302341-28 (antibody, human IgG1, kappa, V domains shown)
VH: B7 VH with N55Q, T76I, S85R, E89D
VL: B1 VL with F41Y, R51L, V88L
B28: PR302341-29 (antibody, human IgG1, kappa, V domains shown)
VH: B7 VH with G56A, T76I, S85R, E89D
VL: B1 VL with F41Y, R51L, V88L
B29: PR302341-30 (antibody, human IgG1, kappa, V domains shown)
VH: B7 VH with T76I, S85R, E89D
VL: B1 VL with D33E, F41Y, R51L, V88L
B30: PR302341-31 (antibody, human IgG1, kappa, V domains shown)
VH: B7 VH with T76I, S85R, E89D
VL: B1 VL with G34A, F41Y, R51L, V88L
B31: PR302341-32 (antibody, human IgG1, kappa, V domains shown)
VH: B7 VH with N55Q, T76I, S85R, E89D
VL: B1 VL with D33E, F41Y, R51L, V88L
B32: PR302341-33 (antibody, human IgG1, kappa, V domains shown)
VH: B7 VH with G56A, T76I, S85R, E89D
VL: B1 VL with G34A, F41Y, R51L, V88L
B33: PR302341-34 (antibody, human IgG1, kappa, V domains shown)
VH: B7 VH with N55Q, T76I, S85R, E89D
VL: B1 VL with G34A, F41Y, R51L, V88L
B34: PR302341-35 (antibody, human IgG1, kappa, V domains shown)
VH: B7 VH with G56A, T76I, S85R, E89D
VL: B1 VL with D33E, F41Y, R51L, V88L
B35: PR302341-36 (antibody, human IgG1, kappa, V domains shown)
VH: B7 VH with N55S, T76I, S85R, E89D
VL: B1 VL with D33E, F41Y, R51L, V88L
B36: PR302341-37 (antibody, human IgG1, kappa, V domains shown)
VH: B7 VH with N55S, T76I, S85R, E89D
VL: B1 VL with G34A, F41Y, R51L, V88L
B37: PR302341-38 (antibody, human IgG1, kappa, V domains shown)
VH: B7 VH with N55Q, T76I, S85R, E89D
VL: B1 VL with D33S, F41Y, R51L, V88L
B38: PR302341-39 (antibody, human IgG1, kappa, V domains shown)
VH: B7 VH with G56A, T76I, S85R, E89D
VL: B1 VL with D33S, F41Y, R51L, V88L
B39: PR302341-40 (antibody, human IgG1, kappa, V domains shown)
VH: B7 VH with N55S, T76I, S85R, E89D
VL: B1 VL with D33S, F41Y, R51L, V88L
B40: PR302341-41 (antibody, human IgG1, kappa, V domains shown)
VH: B7 VH with N55S, T76I, S85R, E89D
VL: B1 VL with F41Y, R51L, V88L
B41: PR302341-42 (antibody, human IgG1, kappa, V domains shown)
VH: B7 VH with T76I, S85R, E89D
VL: B1 VL with D33S, F41Y, R51L, V88L

Assays:
[1] = molecular target: T1, corticotropin-releasing hormone (CRH) …; test: cell-based or functional assay
[2] = molecular target: T1, corticotropin-releasing hormone (CRH) …; test: cell-based or functional assay

Binder | hCRHR1 Luciferase Reporter Assay IC50 [1] | hCRHR1 Luciferase Reporter Assay IC50 [2] | other results
B1 | 397 pM |  | 
B2 | 168 pM |  | 
B3 | 128 pM |  | 
B4 | 107 pM |  | 
B5 | 730 pM |  | 
B6 | 363 pM |  | 
B7 | 230 pM |  | 
B8 | 165 pM |  | mCrhr1 Luciferase Reporter Assay IC50 [1]: 357 pM
B9 | 234 pM |  | 
B10 | 467 pM |  | 
B11 | 250 pM |  | 
B12 | 124 pM |  | 
B13 | 75 pM |  | 
B14 | 124 pM |  | 
B15 | 225 pM |  | 
B16 |  | 1040 pM | mCrhr1 Luciferase Reporter Assay IC50 [2]: 4000 pM
B17 |  | 878 pM | mCrhr1 Luciferase Reporter Assay IC50 [2]: 4700 pM
B18 |  | 1880 pM | hCRHR1 Reporter IC50 [2]: 1820 pM
B19 |  | 2680 pM | 
B20 |  | 2050 pM | 
B21 |  | 1090 pM | 

Binder | hCRHR1 Luciferase Reporter Assay IC50 [1] | hCRHR1 Luciferase Reporter Assay IC50 [2] | other results
B22 |  | 3120 pM | 
B23 |  | 4130 pM | 
B24 |  | 1600 pM | 
B25 |  | 2010 pM | 
B26 |  | 1730 pM | 
B27 |  | 267 pM | mCrhr1 Luciferase Reporter Assay IC50 [2]: 2430 pM
B28 |  | 427 pM | mCrhr1 Luciferase Reporter Assay IC50 [2]: 1390 pM
B29 |  | 457 pM | 
B30 |  | 498 pM | 
B31 |  | 1890 pM | 
B32 |  | 821 pM | mCrhr1 Luciferase Reporter Assay IC50 [2]: 1660 pM
B33 |  | 616 pM | mCrhr1 Luciferase Reporter Assay IC50 [2]: 2190 pM
B34 |  | 1750 pM | 
B35 |  | 1770 pM | 
B36 |  | 792 pM | mCrhr1 Luciferase Reporter Assay IC50 [2]: 1290 pM
B37 |  | 1780 pM | 
B38 |  | 1040 pM | 
B39 |  | 1820 pM | 
B40 |  | 471 pM | 
B41 |  | 1980 pM | 
